# B1: ADD1 (parent)
# chain: LRHSFQKQQREKTRWLNSGRGDEA
# B2: NET1 (parent)
# chain: IKRTIRVLDVNNQSFREQEEPSNK
# Variants of: B1
# Assay: protein stability index of a GFP-peptide fusion (GPS, HEK-293T) (PSI 1-6); higher = more stable
# Conditions: c terminus: a fixed tail appended
# 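Also: lentivirally expressed fusions sorted by FACS into six bins by GFP to DsRed ratio, PSI derived from sequencing read proportions per bin multiplied by bin number.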
row,Variant,protein stability index
1,LDHSFQKQQREKTRWLNSGRGDEA [R2D],5.03
2,LRHSFFKQQREKTRWLNSGRGDEA [Q6F],3.21
3,LRHSFIKQQREKTRWLNSGRGDEA [Q6I],3.25
4,LRHSFLKQQREKTRWLNSGRGDEA [Q6L],3.54
5,LRHSFRKQQREKTRWLNSGRGDEA [Q6R],3.7
6,LRHSFTKQQREKTRWLNSGRGDEA [Q6T],3.7
7,LRHSFNKQQREKTRWLNSGRGDEA [Q6N],3.87
8,LRHSFCKQQREKTRWLNSGRGDEA [Q6C],2.27
9,LRHSFVKQQREKTRWLNSGRGDEA [Q6V],3.56
10,LRHSFEKQQREKTRWLNSGRGDEA [Q6E],4.14
11,LRHSFDKQQREKTRWLNSGRGDEA [Q6D],4.37
12,LRHSFHKQQREKTRWLNSGRGDEA [Q6H],3.69
13,LRHSFAKQQREKTRWLNSGRGDEA [Q6A],3.78
14,LRHSFMKQQREKTRWLNSGRGDEA [Q6M],3.49
15,LRHSFSKQQREKTRWLNSGRGDEA [Q6S],3.18
16,LRHSFPKQQREKTRWLNSGRGDEA [Q6P],4.11
17,LRHSFGKQQREKTRWLNSGRGDEA [Q6G],3.11
18,LRHSFKKQQREKTRWLNSGRGDEA [Q6K],3.99

# Variants of: B2
# Assay: as above
# Conditions: c terminus: a fixed tail appended
row,Variant,protein stability index
1,IKRTIRVLDVNNQSFREQEESSNK [P21S],4.27
2,IKRTIRVLDVNNQSFREQEEISNK [P21I],2.57
3,IKRTIRVLDVNNQSFREQEEKSNK [P21K],4.15
4,IKRTIRVLDVNNQSFREQEEGSNK [P21G],2.72
5,IKRTIRVLDVNNQSFREQEECSNK [P21C],3.54
6,IKRTIRVLDVNNQSFREQEEDSNK [P21D],3.97
7,IKRTIRVLDVNNQSFREQEEYSNK [P21Y],3.78
8,IKRTIRVLDVNNQSFREQEEESNK [P21E],3.36
9,IKRTIRVLDVNNQSFREQEEASNK [P21A],3.29
10,IKRTIRVLDVNNQSFREQEENSNK [P21N],3.92
11,IKRTIRVLDVNNQSFREQEEHSNK [P21H],3.75
12,IKRTIRVLDVNNQSFREQEEWSNK [P21W],3.12
13,IKRTIRVLDVNNQSFREQEEFSNK [P21F],2.35
14,IKRTIRVLDVNNQSFREQEEMSNK [P21M],3.11
15,IKRTIRVLDVNNQSFREQEEQSNK [P21Q],3.34
16,IKRTIRVLDVNNQSFREQEETSNK [P21T],3.57
17,IKRTIRVLDVNNQSFREQEERSNK [P21R],3.68
18,IKRTIRVLDVNNQSFREQEELSNK [P21L],3.93
19,IKRTIRVLDVNNQSFREQEEVSNK [P21V],3.22
20,IKRTIRVLDVNNQSFREQEEPSNL [K24L],4.23
21,IKRTIRVLDVNNQSFREQEEPSNT [K24T],4
22,IKRTIRVLDVNNQSFREQEEPSNC [K24C],3.4
23,IKRTIRVLDVNNQSFREQEEPSND [K24D],3.79
24,IKRTIRVLDVNNQSFREQEEPSNE [K24E],4.37
25,IKRTIRVLDVNNQSFREQEEPSNV [K24V],3.73
26,IKRTIRVLDVNNQSFREQEEPSNG [K24G],3.83

row,Variant,protein stability index
1,IKRTIRVLDVNNQSFREQEEPSNF [K24F],2.98
2,IKRTIRVLDVNNQSFREQEEPSNA [K24A],3.46
3,IKRTIRVLDVNNQSFREQEEPSNY [K24Y],3.61
4,IKRTIRVLDVNNQSFREQEEPSNR [K24R],3.52
5,IKRTIRVLDVNNQSFREQEEPSNQ [K24Q],4.2
6,IKRTIRVLDVNNQSFREQEEPSNW [K24W],2.61
7,IKRTIRVLDVNNQSFREQEEPSNM [K24M],3.82
8,IKRTIRVLDVNNQSFREQEEPSNI [K24I],3.29
9,IKRTIRVLDVNNQSFREQEEPSNN [K24N],3.99
10,IKRTIRVLDVNNQSFREQEEPSNS [K24S],4.07
11,IKRTIRVLDVNNQSFREQEEPSNP [K24P],3.55
12,IKRTIRVLDVNNQSFREQEEPSNH [K24H],4.11
13,IKRTIRVLDVNNQSFREQEYPSNK [E20Y],2.75
14,IKRTIRVLDVNNQSFREQEWPSNK [E20W],2.31
15,IKRTIRVLDVNNQSFREQEEPDNK [S22D],3.99
16,IKRTIRVLDVNNQSFREQEEPLNK [S22L],2.64
17,IKRTIRVLDVNNQSFREQEEPMNK [S22M],4.02
18,IKRTIRVLDVNNQSFREQEEPHNK [S22H],3.83
19,IKRTIRVLDVNNQSFREQEEPYNK [S22Y],3.34
20,IKRTIRVLDVNNQSFREQEEPANK [S22A],3.04
21,IKRTIRVLDVNNQSFREQEEPFNK [S22F],2.55
22,IKRTIRVLDVNNQSFREQEEPTNK [S22T],3.14
23,IKRTIRVLDVNNQSFREQEEPGNK [S22G],2.49
24,IKRTIRVLDVNNQSFREQEEPKNK [S22K],3.87
25,IKRTIRVLDVNNQSFREQEEPPNK [S22P],3.64
26,IKRTIRVLDVNNQSFREQEEPINK [S22I],3.28

row,Variant,protein stability index
1,IKRTIRVLDVNNQSFREQEEPCNK [S22C],3.59
2,IKRTIRVLDVNNQSFREQEEPENK [S22E],3.42
3,IKRTIRVLDVNNQSFREQEEPRNK [S22R],3.85
4,IKRTIRVLDVNNQSFREQEEPVNK [S22V],3.23
5,IKRTIRVLDVNNQSFREQEEPWNK [S22W],1.92
6,IKRTIRVLDVNNQSFREQEEPNNK [S22N],3.97
7,IKRTIRVLDVNNQSFREQEEPQNK [S22Q],2.8
8,IKRTIRVLDVNNQSFREQEEPSQK [N23Q],3.65
9,IKRTIRVLDVNNQSFREQEEPSYK [N23Y],2.07
10,IKRTIRVLDVNNQSFREQEEPSDK [N23D],4.51
11,IKRTIRVLDVNNQSFREQEEPSPK [N23P],2.87
12,IKRTIRVLDVNNQSFREQEEPSEK [N23E],3.96
13,IKRTIRVLDVNNQSFREQEEPSKK [N23K],3.56
14,IKRTIRVLDVNNQSFREQEEPSMK [N23M],3.41
15,IKRTIRVLDVNNQSFREQEEPSTK [N23T],3.73
16,IKRTIRVLDVNNQSFREQEEPSFK [N23F],2.96
17,IKRTIRVLDVNNQSFREQEEPSSK [N23S],3.97
18,IKRTIRVLDVNNQSFREQEEPSCK [N23C],3.8
19,IKRTIRVLDVNNQSFREQEEPSGK [N23G],3.56
20,IKRTIRVLDVNNQSFREQEEPSVK [N23V],4.04
21,IKRTIRVLDVNNQSFREQEEPSLK [N23L],3.16
22,IKRTIRVLDVNNQSFREQEEPSIK [N23I],3.94
23,IKRTIRVLDVNNQSFREQEEPSHK [N23H],2.28
24,IKRTIRVLDVNNQSFREQEEPSAK [N23A],2.99
